Data: publication PMC3974781

Biological target: HA-ASIC2a (mouse acid-sensing ion channel 2a, HA epitope-tagged) (mouse) (UniProt Q925H0)
Sequence of UniProt Q925H0 (Q925H0 whole entry): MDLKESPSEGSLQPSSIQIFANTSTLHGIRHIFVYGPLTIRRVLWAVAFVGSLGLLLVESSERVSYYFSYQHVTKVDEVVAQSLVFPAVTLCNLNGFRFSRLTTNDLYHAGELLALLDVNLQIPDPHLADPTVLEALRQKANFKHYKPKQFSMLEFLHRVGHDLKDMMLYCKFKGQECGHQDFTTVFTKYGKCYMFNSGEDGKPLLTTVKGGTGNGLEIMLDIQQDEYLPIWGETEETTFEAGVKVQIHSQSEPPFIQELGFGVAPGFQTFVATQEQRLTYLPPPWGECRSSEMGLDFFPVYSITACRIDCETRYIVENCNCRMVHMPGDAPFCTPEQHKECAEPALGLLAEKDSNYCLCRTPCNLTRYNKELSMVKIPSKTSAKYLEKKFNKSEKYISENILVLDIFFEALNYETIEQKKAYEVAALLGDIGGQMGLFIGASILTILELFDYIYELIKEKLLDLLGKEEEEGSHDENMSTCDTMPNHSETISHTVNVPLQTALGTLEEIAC

B1: ASIC1a (mouse acid-sensing ion channel 1a) (natural protein)
chain: MELKTEEEEVGGVQPVSIQAFASSSTLHGLAHIFSYERLSLKRALWALCFLGSLAVLLCVCTERVQYYFCYHHVTKLDEVAASQLTFPAVTLCNLNEFRFSQVSKNDLYHAGELLALLNNRYEIPDTQMADEKQLEILQDKANFRSFKPKPFNMREFYDRAGHDIRDMLLSCHFRGEACSAEDFKVVFTRYGKCYTFNSGQDGRPRLKTMKGGTGNGLEIMLDIQQDEYLPVWGETDETSFEAGIKVQIHSQDEPPFIDQLGFGVAPGFQTFVSCQEQRLIYLPSPWGTCNAVTMDSDFFDSYSITACRIDCETRYLVENCNCRMVHMPGDAPYCTPEQYKECADPALDFLVEKDQEYCVCEMPCNLTRYGKELSMVKIPSKASAKYLAKKFNKSEQYIGENILVLDIFFEVLNYETIEQKKAYEIAGLLGDIGGQMGLFIGASILTVLELFDYAYEVIKHRLCRRGKCQKEAKRNSADKGVALSLDDVKRHNPCESLRGHPAGMTYAANILPHHPARGTFEDFTC
  pH50 of activation of acid-evoked currents in CHO cells coexpressing ASIC1a and ASIC2a (whole-cell patch clamp); ASIC1a alone pH50 = 6.7, ASIC2a alone pH50 = 4.0: 5.4 pH
